Experimental findings from doi:10.1101/2022.03.25.485794 (bioRxiv, 2022) are described below.

Like-named read-outs stand apart in the source and are kept apart here.

Assay in all cases: cryo-EM structure
For experiment [1], the target named is T1, E. coli [Cys541;Pro607]-σ^70 (E. coli, UniProt P00579 1-613, R541C | L607P).
For experiment [2], the target named is E. coli NusA (E. coli, UniProt P0AFF6 1-495).
For experiment [3], the target named is T1, E. coli [Cys541;Pro607]-σ^70. The source holds these as a separate data set.

B1: wild-type Qλ (Q protein of bacteriophage λ) (natural protein, UniProt P03047 1-207, looked up)
chain: MRLESVAKFHSPKSPMMSDSPRATASDSLSGTDVMAAMGMAQSQAGFGMAAFCGKHELSQNDKQKAINYLMQFAHKVSGKYRGVAKLEGNTKAKVLQVLATFAYADYCRSAATPGARCRDCHGTGRAVDIAKTELWGRVVEKECGRCKGVGYSRMPASAAYRAVTMLIPNLTQPTWSRTVKPLYDALVVQCHKEESIADNILNAVTR
With B1, the binding result in experiment [1] and in experiment [2] was “binds” in each case.

B2: Qλ^M1S (Q protein of bacteriophage λ, M1S derivative) (natural protein, UniProt P03047 1-207, looked up)
chain: SRLESVAKFHSPKSPMMSDSPRATASDSLSGTDVMAAMGMAQSQAGFGMAAFCGKHELSQNDKQKAINYLMQFAHKVSGKYRGVAKLEGNTKAKVLQVLATFAYADYCRSAATPGARCRDCHGTGRAVDIAKTELWGRVVEKECGRCKGVGYSRMPASAAYRAVTMLIPNLTQPTWSRTVKPLYDALVVQCHKEESIADNILNAVTR
In the case of B2, the binding result in experiment [3] is recorded as “binds”.
